Reference: patent publication US7078174B1, “Screening methods using SOCS box-containing peptides” (The Walter & Eliza Hall Institute of Medical Research, priority 1998, dated 2006)

Tests used:
[1] = biological target: T1, elongins B and C (Mus musculus, UniProt P62869+P83940); experiment: Co-transfection of 293T cells with SOCS box proteins and elongins B and C, co-immunoprecipitation; assay type: binding; details: anti-myc immunoprecipitation, anti-FLAG Western blot
T1 construct: expressed in transfected cells; host or cells: 293T human fibroblast cell line, vector pEF-BOS
Source text: The cDNAs encoding mouse SOCS-1, SOCS-3, WSB-1, SSB-1, ASB-1, have been described previously (1,8). Constructs in pEF-FLAG1 encoding these proteins, with or without the SOCS box, with an N-terminal FLAG epitope tag (DYKDDDDK) (SEQ ID NO:1) were generated by PCR essentially as described (8) (found at http://www.wehi.edu.au/willson vectors). DNA fragments encoding mouse elongins B and C were amplified using PCR from a 17-day embryo cDNA lambda library (Clontech ML5014t) and were expressed with N-terminal FLAG or myc (DQKLISEEDL) (SEQ ID NO:2) epitope tags, respectively, using the mammalian expression vector pEF-BOS.
The murine monocytic leukemic cell line, M1, and the 293T human fibroblast cell line were maintained and transfected as described (8).
(§1) Proteins were immunoprecipitated with anti-myc (9E10; WEHI) and protein A-Sepharose or anti-FLAG antibody conjugated to Sepharose (KM5-IC7; WEHI) and separated by sodium dodecyl sulphate-polyacrylamide gel electrophoresis (SDS-PAGE) (Biorad, Hercules, Calif.) under reducing conditions. Proteins were then electrophoretically transferred to PVDF-Plus membranes (Micron Separations Inc. WestBorough, Mass.) and Western blotted as described (8).

[2] = tested on: elongin B, elongin C, cullin 2, JAK1, gp130; experiment: Analysis of proteins interacting with SOCS-1 in unstimulated M1 cells (anti-FLAG affinity column, Western blot); assay type: binding, murine; details: 10^9 unstimulated M1 cells, anti-FLAG affinity column eluate
Source text: The inventors passed lysates from 10^9 unstimulated M1 cells expressing FLAG-tagged SOCS-1 through an anti-FLAG affinity column which was then eluted with FLAG peptide. The eluate was then subjected to SDS-PAGE and the proteins were Western blotted. The blot was then probed with anti-FLAG antibodies to confirm the presence of SOCS-1 and with a range of antibodies against proteins thought to interact with SOCS-1 (FIG. 7). […] To determine whether proteins in this complex interact directly or indirectly with SOCS-1, or whether all the proteins can be found together in a single complex, or whether separate complexes are, for example, formed between SOCS-1, JAK-1 and gp130 on one hand and between SOCS-1, elongin B and C and cullin-2, is addressed in part by performing the primary immunoprecipitation using a different antibody.
Further, the nature of the complex is analyzed by repeating experiments using a mutant SOCS protein which lacks one or more domains. In the case described above, the inventors have performed an identical analysis using M1 cells expressing a FLAG-tagged mutant of SOCS-1 lacking the SOCS box. […] This type of experiment addresses whether interactions are direct or indirect. Further analysis involves approaches of the type described below.

[3] = biological target: T2, endogenous elongins B and C (Mus musculus, UniProt P62869+P83940); experiment: Interaction of FLAG-tagged SOCS-1 with endogenous elongins in M1 cells (anti-FLAG resin, Western blot); assay type: binding, murine; details: M1 cells stably expressing FLAG-tagged protein, anti-FLAG immunoprecipitation
T2 construct: endogenous in cells; host or cells: M1 murine monocytic leukemic cells
Description: Two liters of M1 cells stably expressing either full-length SOCS-1 or SOCS-1 lacking SOCS box (with N-terminal FLAG epitopes) were grown in DME containing 5% bovine calf serum, 10 μg/ml puromycin and 50 ng/ml murine IL-6. The cells were harvested and incubated in 20 ml of culture media containing 10 μM proteasome-specific inhibitor, N-acetyl-L-leucinyl-L-leucinyl-norleucinal (LLnL; Sigma, St. Louis, Mo.) for 30 min at 37° C. The cells were lysed in 14 ml of lysis buffer supplemented with protease inhibitors (Complete Cocktail tablets), 1 mM PMSF, 1 mM Na3VO4, 1 mM NaF and 10 μM LLnL. Total cell lysates were centrifuged at 15,000 rpm (SS34 rotor) for 15 min at 4° C. and the clarified supernatants incubated with 0.3 ml of M2 anti-FLAG antibody resin for 3 h at 4° C. Resin was then washed with 10 ml of lysis buffer and the bound proteins were eluted with 6×150 μl of 100 μg/m FLAG peptide in lysis buffer.
as §1

T1 sequence (P83940 whole entry): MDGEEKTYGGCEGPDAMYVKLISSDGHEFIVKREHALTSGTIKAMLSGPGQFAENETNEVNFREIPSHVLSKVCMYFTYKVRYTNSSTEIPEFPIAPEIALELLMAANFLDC
T1 sequence (P62869 whole entry): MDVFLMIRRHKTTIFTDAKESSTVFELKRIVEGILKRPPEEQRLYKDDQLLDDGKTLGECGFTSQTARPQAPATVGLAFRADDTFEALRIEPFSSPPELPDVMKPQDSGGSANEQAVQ
T2 sequence (P83940 whole entry): as the sequence (P83940 whole entry) above
T2 sequence (P62869 whole entry): as the sequence (P62869 whole entry) above

Row | association with endogenous elongins B and C [3] | Molecule | co-immunoprecipitation with elongin C (and elongin B) [1] | complex formation with elongin B, elongin C, cullin 2, JAK1 and gp130 [2]
1 | – | WSB-2: N-terminally FLAG-tagged WSB-2 protein transfected into 293T fibroblasts (protein) DYKDDDDKMEAGEEPLLLAELKPGRPHQFDWKSSCETWSVAFSPDGSWFAWSQGHCVVKLVPWPLEEQFIPKGFEAKSRSSKNDPKGRGSLKEKTLDCGQIVWGLAFSPWPSPPSRKLWARHHPQAPDVSCLILATGLNDGQIKIWEVQTGLLLLNLSGHQDVVRDLSFTPSGSLILVSASRDKTLRIWDLNKHGKQIQVLSGHLQWVYCCSISPDCSMLCSAAGEKSVFLWSMRSYTLIRKLEGHQSSVVSCDFSPDSALLVTASYDTSVIMWDPYTGERLRSLHHTQLEPTMDDSDVHMSSLRSVCFSPEGLYLATVADDRLLRIWALELKAPVAFAPMTNGLCCTFFPHGGIIATGTRDGHVQFWTAPRVLSSLKHLCRKALRSFLTTYQVLALPIPKKMKEFLTYRTF | found to co-immunoprecipitate along with elongin B with elongin C | –
2 | – | SSB-1: N-terminally FLAG-tagged SSB-1 protein transfected into 293T fibroblasts (protein) DYKDDDDKMGQKVTGGIKTVDMRDPTYRPLKQELQGLDYCKPTRLDLLLDMPPVSYDVQLLHSWNNNDRSLNVFVKEDDKLIFHRHPVAQSTDAIRGKVGYTRGLHVWQITWAMRQRGTHAVVGVATADAPLHSVGYTTLVGNNHESWGWDLGRNRLYHDGKNQPSKTYPAFLEPDETFIVPDSFLVALDMDDGTLSFIVDGQYMGVAFRGLKGKKLYPVVSAVWGHCEIRMRYLNGLDPEPLPLMDLCRRSVRLALGKERLGAIPALPLPASLKAYLLYQ | found to co-immunoprecipitate along with elongin B with elongin C | –
3 | associated with bound elongins B and C | full-length SOCS-1: N-terminally FLAG-tagged full-length mouse SOCS-1 stably expressed in M1 cells (protein) DYKDDDDKMVARNQVAADNAISPAAEPRRRSEPSSSSSSSSPAAPVRPRPCPAVPAPAPGDTHFRTFRSHSDYRRITRTSALLDACGFYWGPLSVHGAHERLRAEPVGTFLVRDSRQRNCFFALSVKMASGPTSIRVHFQAGRFHLDGSRETFDCLFELLEHYVAAPRRMLGAPLRQRRVRPLQELCRQRIVAAVGRENLARIPLNPVLRDYLSSFPFQI | – | capable of forming a complex with elongin B and elongin C, cullin 2, as well as JAK1 and gp130
